Results from patent US9909188B2, “Methods and compositions involving lincRNA and leukemia” (THE REGENTS OF THE UNIVERSITY OF CALIFORNIA, priority 2013, dated 2018).

Assays:
Balir-2 [1] = assay: Balir-2 expression in 70Z/3 mouse cell line (RT-qPCR, normalized to L32); assay type: cell-based; details: 70Z/3 cells, 6 hrs
Procedure: (§1) RNA collected from samples was reverse transcribed using qScript reagent (Quanta Biosciences). Real Time quantitative PCR was performed with the StepOnePlus Real-Time PCR System (Applied Biosystems) using PerfeCTa SYBR Green FastMix reagent (Quanta Biosciences).
(§2) RACE was performed and two products were identified at this locus (FIG. 16E). We generated miRNA-formatted siRNAs (Rao, et al., 2010) against the mapped murine transcript and confirmed decreased expression in the murine pre-B cell line 70Z/3 (FIG. 14B). […] Similar to what we observed in human cell lines, Balir-2 knockdown led to an upregulation of Jun and Fos in all three of the cell lines with upregulation of Bim in two out of three cell lines (FIG. 14D-F). We further confirmed the upregulation of these proteins by western blot analysis (FIG. 14G). […] We also examined the effects of BALIR-2 expression in a second human B-ALL cell line, Reh (FIG. 18K-R), utilizing a novel method to target the transcript. Based on the method of Ulitsky et al, we generated a siRNA-like sequence within our miRNA formatted vector, targeting the splice junction of the BALIR-2 transcript (Ulitsky, et al., 2011).

BALIR-2 [2] = assay: Effect of prednisolone on BALIR-2 expression in human B-ALL cell lines (RT-qPCR); assay type: cell-based
Procedure: (§3) To measure proliferation, cells were cultured for 3-5 days before plating. Reagents were added according to the manufacturer's instructions (Promega CellTiter 96 AQueous Non-Radioactive Cell Proliferation Assay kit) and cells were incubated at 37°, 5% CO2 for 4 hours before absorbance was measured at 490 nm. To measure apoptosis, cells were plated and treated with 100 ng/mL doxorubicin or 250 μg/mL prednisolone in DMSO and incubated at 37° C. and 5% CO2. An untreated group and DMSO-treated group were included as controls. Cells were harvested after 24 hours and lysed with buffer supplied by Biovision. Protein concentrations were normalized after measurement by Bradford assay. Reagents were added according to the manufacturer's instructions (Biovision Caspase-3 Colorimetric Assay kit) and absorbance was measured at 405 nm. To observe the effects of prednisolone on lincRNA expression, untransduced cell lines were plated and treated with either 250 μg/mL prednisolone in DMSO or DMSO alone as a control. Cells were incubated at 37° C. and 5% CO2 for 24 hrs. Cells were collected and RNA was extracted using Trizol reagent (Invitrogen).
as §1

[3] = tested on: glucocorticoid receptor signaling pathway; assay: Expression of glucocorticoid response genes in RS4;11 cells (microarray, RT-qPCR); assay type: cell-based, human
Procedure: as §1
Several of these clusters consist of genes involved in the glucocorticoid receptor signaling pathway, confirmed by functional annotation results (2-4 fold increases in FOS, HSPA6, SGK1, IL8, JUN, SERPINE1, CDKN1A and ICAM1 in siRNA group, both with and without prednisone treatment; FIGS. 13B and 13C). We confirmed knockdown of BALIR-2 and upregulation of FOS, JUN, SGK1 and SERPINE1 (FIG. 13D-F and FIG. 18E-F) by RT-qPCR. […] We also observed upregulation of the pro-apoptotic protein BIM in both knockdown and prednisolone-treated cells, which is a downstream target of JUN and an important mediator of glucocorticoid-induced apoptosis of lymphocytic cells (Heidari, et al, 2012) (FIGS. 13G and 13K).

RS411 cell line [4] = assay: Apoptosis, caspase-3 activity, RS411; assay type: cell-based, human; details: for apoptosis measured by caspase-3 activity: RS411 stably transduced
Procedure: as §3, with “To measure apoptosis, cells were plated and treated with 100 ng/mL doxorubicin or 250 μg/mL prednisolone in DMSO and incubated at 37° C. and 5% CO2.” left out

70Z/3 cells = assay: Apoptosis in 70Z/3 cells (caspase-3 activity); assay type: cell-based, mouse
[5] = tested on: glucocorticoid response genes Fos, Jun and Bim; assay: Expression of glucocorticoid response genes Fos, Jun and Bim in 70Z/3 cells (RT-qPCR, Western blot); assay type: cell-based, mouse
Procedure: as §1, §2

BALIR-2 [6] = assay: siRNA-mediated knockdown of BALIR-2 in human B-ALL cell lines (RT-qPCR, normalized to Actin); assay type: cell-based
Procedure: We designed two complementary “linker” strands containing restriction sites for BamHI (5′ intact), XhoI, XbaI, NheI, ApaI and BamHI (3′ mutated) as follows: 5′-[…]-3′ (forward) (SEQ ID NO. 11), 5′-[…]-3′ (reverse) (SEQ ID NO. 12). The oligonucleotides were ordered through Invitrogen and modified with 5′-phosphate groups. The complementary strands were annealed by heating to 100° C. and slowly cooling in a water bath. The pHAGE2-CMV-ZsGreen-W vector (previously described in (O'Connell, 2010)) was digested with BamHI (Fermentas) and the linker was ligated in using T4 DNA ligase (Fermentas). Colonies were sequenced (Laragen) to determine the correct orientation and verify the sequence of the insert and mutation of the 3′ BamHI site. miRNA-formatted siRNAs were cloned into BamHI and ApaI or XhoI in the P2CZL vector, using the strategy that we have previously described to generate knockdown vectors against protein coding genes (O'Connell, 2009; Rao, 2010).
All lentiviruses were produced by transfecting 293T adherent cells with knock-down vectors as listed in Table 1, using BioT transfection agent (Bioland Scientific). 2.5×10^5 293T cells were co-transfected in trans using an advanced generation lentiviral system in 6 well plates for 48 hours as described previously (O'Connell, 2010). At 48 hours, the viral supernatant was collected, filtered and used for spin infection of B-ALL cell lines. 5.0×10^5 cells were spin-infected at 30° C. for 90 minutes in the presence polybrene (4 μg/mL). Transduced cells were sorted for high ZsGreen expression as described above.
as §1

RS411 cell line [7] = assay: Cell proliferation, MTS assay, RS411; assay type: cell-based, human; details: RS411 stably transduced with siRNA
Procedure: as §3

[8] = RS411 cell line, stably transduced

Molecule: C[C@]12C=CC(=O)C=C1CC[C@@H]1[C@@H]2[C@@H](O)C[C@@]2(C)[C@H]1CC[C@]2(O)C(=O)CO [prednisolone]
- Balir-2 expression upon prednisolone treatment (Balir-2 [1]): decreased
- BALIR-2 expression after prednisolone treatment (BALIR-2 [2]; RS4;11 cells): repressed
- decrease in expression of BALIR-2 following treatment (BALIR-2 [2]; RS411 and NALM6 cell lines treated with prednisolone): 30-50%
- expression of FOS and JUN after prednisolone treatment ([3]; RS4;11 cells): increased expression
- expression of pro-apoptotic protein BIM ([3]; RS4;11 cells): upregulation
- apoptosis after prednisolone treatment (RS411 cell line [4]; RS4;11 cells): induction of apoptosis
- apoptosis after prednisolone treatment (70Z/3 cells): increased apoptosis
- expression of Jun, Fos and Bim after prednisolone treatment [5]: upregulation

B1: human-miR155-formatted siRNA2: human-miR155-formatted siRNA2 against BALIR-2; SEQ ID NO:34/44, printed as siRNA1-human155f (nucleic acid)
chain 1: GTAGGCTGTATGCTGTTTACTGAAATCTCCTAGGTGGTTTTGGCCACTGACTGACCACCTAGGATTTCAGTAAATGTATGATGCCTG
chain 2: TTTACTGAAATCTCCTAGGTG
modifications: expressed or natural sequence
- knockdown of BALIR-2 (BALIR-2 [6]; [8]): do not knock down

B2: siRNA3: miR-155 formatted siRNA oligo against BALIR-2; SEQ ID NO:31/41 (nucleic acid)
chain 1: GTAGGCTGTATGCTGTAAGGTAAGTGGCAGGCATTTGTTTTGGCCACTGACTGACAAATGCCTCACTTACCTTATGTATGATGCCTG
chain 2: TAAGGTAAGTGGCAGGCATTT
modifications: expressed or natural sequence
- knockdown of BALIR-2 (BALIR-2 [6]; [8]): do not knock down

B3: human-miR155-formatted siRNA1: human-miR155-formatted siRNA1 against BALIR-2; SEQ ID NO:33/43 (nucleic acid)
chain 1: GTAGGCTGTATGCTGAGATTAGGTTGGCATGATTCTGTTTTGGCCACTGACTGACAGAATCATCAACCTAATCTTGTATGATGCCTG
chain 2: AGATTAGGTTGGCATGATTCT
modifications: expressed or natural sequence
- knockdown of BALIR-2 (BALIR-2 [6]; [8]): do not knock down

B4: siRNA1: miR-155 formatted siRNA oligo against BALIR-2; SEQ ID NO:29, targeting sequence SEQ ID NO:39 (nucleic acid)
chain: GAAGGCTGTATGCTGAGATTAGGTTGGCATGATTCTGTTTTGGCCACTGACTGACAGAATCATCAACCTAATCTCAGGACACAAGGCCTG
modifications: expressed or natural sequence
- cell proliferation (MTS assay) (RS411 cell line [7]): reduced
- knockdown of BALIR-2 (BALIR-2 [6]; NALM6 cell line): do not knock down

B5: siRNA2: miR-155 formatted siRNA oligo against BALIR-2; SEQ ID NO:30, targeting sequence SEQ ID NO:40 (nucleic acid)
chain: GAAGGCTGTATGCTGTTTACTGAAATCTCCTAGGTGGTTTTGGCCACTGACTGACCACCTAGGATTTCAGTAAACAGGACACAAGGCCTG
modifications: expressed or natural sequence
- increases in FOS, HSPA6, SGK1, IL8, JUN, SERPINE1, CDKN1A and ICAM1 in siRNA group ([3]; RS4;11, microarray, both with and without prednisone treatment): 2-4 fold
- expression of FOS, JUN, SGK1 and SERPINE1 by RT-qPCR after knockdown ([3]; RS4;11 cells): upregulation
- expression of pro-apoptotic protein BIM ([3]; RS4;11 cells): upregulation
- apoptosis measured by caspase-3 activity (RS411 cell line [4]; DMSO): Increased apoptosis
- apoptosis measured by caspase-3 activity (RS411 cell line [4]; no treatment): Increased apoptosis
- knockdown of BALIR-2 (BALIR-2 [6]; NALM6 cell line): do not knock down
- knockdown of BALIR-2 (BALIR-2 [6]; [8]): greatest degree of knockdown

B6: siRNA4: miR-155 formatted siRNA oligo against BALIR-2; SEQ ID NO:32/42 (nucleic acid)
chain 1: GTAGGCTGTATGCTGTTTCACGGTGTGGCAGCTTTCGTTTTGCCTCCAACTGAGAAAGCTGACACCGTGAAATGTATGATGCCTG
chain 2: TTTCACGGTGTGGCAGCTTTC
modifications: expressed or natural sequence
- knockdown of BALIR-2 (BALIR-2 [6]; [8]): do not knock down
